This note sets out measurements from publication PMC6128732.

pKd: −log10 of the molar value.

The target of the assay is Biotinylated Xenopus laevis XRCC4-Avitag (Xenopus laevis). The assay can be described thus: BLI. In general terms: BLI is a label-free optical method that tracks binding on a fibre tip over time.

By pKd is commonly meant the negative decadic logarithm of the Kd, by convention in mol/L. A low value points to a high Kd. In turn, “Xenopus laevis XLF^1-226 (C-terminally truncated XLF) (from UniProt A0A1L8ENT6 1-226) (domain or fragment)” gave a pKd of 6.55.
